Reference: patent US7195897B2, “Feedback-resistant homoserine transsuccinylases having a modified c-terminus” (priority 2002, dated 2007)
Where two headings read alike, the source gives them in different places.

B1: pKP413GAP: E. coli wild-type homoserine transsuccinylase (MetA, SEQ ID No. 2) expressed from starting plasmid pKP413GAP under the GAPDH promoter (protein, listed as Escherichia coli)
chain: MPIRVPDELPAVNFLREENVFVMTTSRASGQEIRPLKVLILNLMPKKIETENQFLRLLSNSPLQVDIQLLRIDSRESRNTPAEHLNNFYCNFEDIQDQNFDGLIVTGAPLGLVEFNDVAYWPQIKQVLEWSKDHVTSTLFVCWAVQAALNILYGIPKQTRTEKLSGVYEHHILHPHALLTRGFDDSFLAPHSRYADFPAALIRDYTDLEILAETEEGDAYLFASKDKRIAFVTGHPEYDAQTLAQEFFRDVEAGLDPDVPYNYFPHNDPQNTPRASWRSHGNLLFTNWLNYYVYQITPYDLRHMNPTLD

Experiments:
[1] = molecular target: T1, E. coli homoserine transsuccinylase (MetA), wild type, SEQ ID NO: 2 (plasmid pKP413GAP) (Escherichia coli, UniProt P07623); assay: biochemical; settings: pH 7.6, read-out: Activity (%) in the presence of 1 mM L-methionine
[2] = molecular target: T1, E. coli homoserine transsuccinylase (MetA), wild type, SEQ ID NO: 2 (plasmid pKP413GAP); settings: pH 7.5, read-out: Activity (%) in the presence of 1 mM SAM
[3] = tested on: homoserine transsuccinylase; assay: Homoserine transsuccinylase activity test (Lee et al., 5,5'-dithiobis(2-nitrobenzoic acid), 412 nm), activity and inhibition by SAM; format: biochemical, E. coli; settings: cell extract; 3 mM homoserine, 0.3 mM succinyl-CoA, 50 mM potassium phosphate buffer pH 7.5
[4] = tested on: homoserine transsuccinylase; settings: cell extract of E. coli W3110 transformant; 1 mM homoserine, 0.1 mM succinyl-CoA, 50 mM Tris/Cl pH 7.6

Molecule | activity at 1000 µM [1] [%] | activity at 1000 µM [2] [%] | Activity (U/mg) [3] [U/mg] | Activity (U/mg) [4] [U/mg]
CSCC[C@H](N)C(=O)O [L-methionine] | 2 | – | – | –
C[S+](CC[C@H](N)C(=O)[O-])C[C@H]1O[C@@H](n2cnc3c(N)ncnc32)[C@H](O)[C@@H]1O (some centres unmarked) [SAM, S-Adenosylmethionine] | – | 0.5 | – | –
pBaBmetAext2: MetA variant with altered, extended carboxy-terminus from amino acid 297 onwards (SEQ ID No. 12) (SYIHQYLLVNNSTELWMHTRLIKRPHCDEWQGGA) | – | – | 0.173 | 0.045
pBaBmetAext: MetA variant with altered, extended carboxy-terminus from amino acid 297 onwards (SEQ ID No. 10) (SYIHHYLLVNNSTELWMHTRLIKRPHCDEWQGGA) | – | – | 0.082 | 0.011
B1 | – | – | 0.62 | 0.155
